One assay addresses T1, human cMet on 3T3 cells (human, UniProt P08581 25-1390).
T1 construct: whole, on cells; also called cell surface-expressed human cMet
Nature of the assay: phage whole cell ELISA, 3T3 human cMet vs 3T3. The procedure:
Whole cell ELISAs were performed using 3T3 cells that over-express human cMet. […] Briefly, 96-well plates were seeded with 10⁵ cells per well. The plates were centrifuged for 5 minutes at 1600 rpm to pellet the cells. The resulting cell layer was fixed with 0.1% (v/v) glutaraldehyde for 12 minutes at 37 C. […] Peptide-displaying phage also were blocked in the above solution for 1 hour at 37 C. 100 μL of blocked phage was then added to each well and the plates were incubated for 1 hour at room temperature. The plates were washed with PBST. cMet-binding peptide-displaying phage were detected using an HRP-conjugated anti-M13 antibody.

Assay [1] deals with T2, cMet-Fc fusion protein (human, UniProt P08581 25-932).
T2 construct: extracellular domain; also called soluble cMet-Fc fusion protein; cMet-Fc (R&D Systems); not shown: Fc part, not described
Nature of the assay: phage ELISA on cMet-Fc, competitor HGF 100 ng/mL. The procedure:
(§1) These assays were conducted using the peptide-displaying phage discovered from the initial selection and screening campaigns using the first generation peptide libraries. Briefly, 96-well plates were coated overnight at 4 C with 0.5 μg/mL of cMet-Fc fusion protein or TRAIL-Fc fusion protein (background). The plates were blocked for 2 hours at 37 C with 3% BSA in PBST. […] This was followed by an addition of 30 μL of peptide-displaying phage overnight culture to each well. The plates were incubated for 2 hours at room temperature, washed with PBST and cMet-binding peptide-displaying phage was detected using an HRP-conjugated anti-M13 antibody.
For orientation: ELISA stands for enzyme-linked immunosorbent assay.

The target in assay [2] is T2, cMet-Fc fusion protein. In words: phage ELISA on cMet-Fc, competitor HGF 500 ng/mL. The protocol: as §1
Assay [3] deals with T2, cMet-Fc fusion protein. Nature of the assay: phage protein ELISA, cMet-Fc vs TRAIL-Fc. The protocol:
Protein phage ELISAs using peptide-displaying phage isolates from the various selection campaigns were performed to determine specificity of the peptides for cMet versus an unrelated Fc-fusion protein (TRAIL-Fc). Briefly, 384-well plates were coated overnight at 4 C with 0.5 μg/mL of cMet-Fc fusion protein or TRAIL-Fc fusion protein (background). The plates were blocked for 2 hours 37 C with 3% (w/v) BSA in PBS containing 0.05% (v/v) Tween-20 (PBST). The plates were washed with PBST and 100 μL of peptide-displaying phage were added to each well. The plates were incubated for 2 hours at room temperature and washed with PBST. cMet-binding peptide-displaying phage were detected using an HRP-conjugated anti-M13 antibody.

T2 sequence (P08581 25-932): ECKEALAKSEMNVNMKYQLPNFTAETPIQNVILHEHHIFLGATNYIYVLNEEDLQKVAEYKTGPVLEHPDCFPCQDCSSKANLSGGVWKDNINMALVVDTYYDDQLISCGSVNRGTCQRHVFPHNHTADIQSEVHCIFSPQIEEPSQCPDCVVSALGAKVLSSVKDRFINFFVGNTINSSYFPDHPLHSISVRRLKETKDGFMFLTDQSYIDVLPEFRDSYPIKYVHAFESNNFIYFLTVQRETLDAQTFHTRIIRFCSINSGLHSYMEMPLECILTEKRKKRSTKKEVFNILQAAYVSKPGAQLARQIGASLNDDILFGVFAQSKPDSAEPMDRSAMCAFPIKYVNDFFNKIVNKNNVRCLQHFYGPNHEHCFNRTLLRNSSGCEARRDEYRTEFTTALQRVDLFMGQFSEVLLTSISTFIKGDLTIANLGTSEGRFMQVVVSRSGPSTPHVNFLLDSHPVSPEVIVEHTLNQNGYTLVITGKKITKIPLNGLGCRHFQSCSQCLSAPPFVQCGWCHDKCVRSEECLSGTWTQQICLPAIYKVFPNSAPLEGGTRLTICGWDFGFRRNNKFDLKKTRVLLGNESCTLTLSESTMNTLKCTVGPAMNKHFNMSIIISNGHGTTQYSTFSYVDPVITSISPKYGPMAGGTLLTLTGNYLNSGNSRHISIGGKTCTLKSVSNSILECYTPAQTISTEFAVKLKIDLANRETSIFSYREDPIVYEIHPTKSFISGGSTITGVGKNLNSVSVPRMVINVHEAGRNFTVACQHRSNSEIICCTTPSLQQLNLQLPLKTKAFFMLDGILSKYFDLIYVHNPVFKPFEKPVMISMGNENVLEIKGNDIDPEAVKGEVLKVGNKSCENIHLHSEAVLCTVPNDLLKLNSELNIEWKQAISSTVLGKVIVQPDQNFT
T1 sequence (P08581 25-1390): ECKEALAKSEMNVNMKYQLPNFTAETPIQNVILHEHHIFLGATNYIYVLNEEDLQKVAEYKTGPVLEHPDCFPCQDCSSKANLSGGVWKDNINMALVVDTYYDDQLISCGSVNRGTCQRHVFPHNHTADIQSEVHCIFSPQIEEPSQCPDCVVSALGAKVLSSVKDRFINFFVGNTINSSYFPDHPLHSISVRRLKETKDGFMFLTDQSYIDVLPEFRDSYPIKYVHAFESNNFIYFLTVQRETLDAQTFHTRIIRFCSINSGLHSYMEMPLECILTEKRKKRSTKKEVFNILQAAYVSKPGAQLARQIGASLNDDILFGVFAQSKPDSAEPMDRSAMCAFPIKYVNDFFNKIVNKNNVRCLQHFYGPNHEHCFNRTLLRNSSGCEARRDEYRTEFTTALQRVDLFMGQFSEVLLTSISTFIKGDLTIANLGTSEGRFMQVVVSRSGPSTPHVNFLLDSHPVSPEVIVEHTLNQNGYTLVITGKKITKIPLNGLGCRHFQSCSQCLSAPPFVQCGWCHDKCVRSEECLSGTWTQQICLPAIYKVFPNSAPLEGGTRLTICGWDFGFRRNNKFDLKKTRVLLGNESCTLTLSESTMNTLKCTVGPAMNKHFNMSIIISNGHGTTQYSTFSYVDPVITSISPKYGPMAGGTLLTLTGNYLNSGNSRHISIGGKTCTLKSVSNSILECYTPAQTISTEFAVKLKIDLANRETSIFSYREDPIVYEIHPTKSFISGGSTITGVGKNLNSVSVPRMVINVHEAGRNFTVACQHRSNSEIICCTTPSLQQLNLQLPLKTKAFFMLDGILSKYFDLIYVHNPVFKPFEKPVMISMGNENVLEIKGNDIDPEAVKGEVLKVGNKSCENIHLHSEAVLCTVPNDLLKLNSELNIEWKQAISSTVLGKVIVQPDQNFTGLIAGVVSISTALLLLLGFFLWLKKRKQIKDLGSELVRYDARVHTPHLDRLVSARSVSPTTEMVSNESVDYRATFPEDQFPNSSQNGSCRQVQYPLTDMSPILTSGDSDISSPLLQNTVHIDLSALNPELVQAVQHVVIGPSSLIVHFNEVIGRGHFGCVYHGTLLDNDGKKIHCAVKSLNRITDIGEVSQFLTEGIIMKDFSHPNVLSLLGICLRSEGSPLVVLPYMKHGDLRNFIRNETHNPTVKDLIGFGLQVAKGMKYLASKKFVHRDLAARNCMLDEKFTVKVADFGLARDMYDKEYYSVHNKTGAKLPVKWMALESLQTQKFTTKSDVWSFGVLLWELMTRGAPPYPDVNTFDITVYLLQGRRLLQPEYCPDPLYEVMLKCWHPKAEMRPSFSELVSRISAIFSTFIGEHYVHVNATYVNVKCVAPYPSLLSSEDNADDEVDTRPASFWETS

GDLLVCKFDDKFWTETCEWADP (on M13 phage) [peptide-displaying phage 549-G05] came in with a fold over background with human cMet on 3T3 cells of 14.5 fold.

As for GSGDPCSPGPSINGHCSVMAP (on M13 phage) [peptide-displaying phage 453-A05], the “% of binding in the absence of HGF” value in the assay with cMet-Fc fusion protein [1] was 514%.

AGLPKCSGPPWFSCYYGGT (on M13 phage) [peptide-displaying phage 545-A09] yielded a fold over background with human cMet on 3T3 cells of 1.36 fold.

As to AGETFCSGWPTFECMQWGT (on M13 phage) [peptide-displaying phage 547-H03], in the assay with cMet-Fc fusion protein [2], the “% of binding in the absence of HGF” value is 43%.

Consider AQFDRYWHFAWMDVSFSSGQSG (on M13 phage) [peptide-displaying phage 92-B05], for which, in the assay with human cMet on 3T3 cells, the fold over background stood at 1.23 fold.

As for AGQFYCSGPPTFQCIMIGT [peptide-displaying phage 550-F11], the fold over background is 1.23 fold with human cMet on 3T3 cells and 1.4 fold with cMet-Fc fusion protein [3]. Besides, the % of binding in the absence of HGF with cMet-Fc fusion protein [2] came out at 23%; with cMet-Fc fusion protein [1], 58%.

Take AGETVCYWLNGWFCVDDGT (on M13 phage) [peptide-displaying phage 274-B07]: the “% of binding in the absence of HGF” value with cMet-Fc fusion protein [1] stood at 343%.

For the molecule AQDPGFSKHSMGHGYPSKMNWG (on M13 phage) [peptide-displaying phage 115-G02], the “% of binding in the absence of HGF” value with cMet-Fc fusion protein [1] came out at 57%.

The molecule GSMLGCLFEHQNKYDCYVLAP (on M13 phage) [peptide-displaying phage 443-D04] came in with a fold over background in the assay with cMet-Fc fusion protein [3] of 3 fold.

In turn, GSHHTCLDGFAGWRCTEVAP (on M13 phage) [peptide-displaying phage 546-E02] gave a fold over background in the assay with cMet-Fc fusion protein [3] of 40.4 fold.

Consider AGYSVCKGYPSFECAFFGT (on M13 phage) [peptide-displaying phage 336-D07], for which the fold over background in the assay with human cMet on 3T3 cells came out at 14.3 fold.

Take AGFWDCGWMMQDCHMHGT (on M13 phage) [peptide-displaying phage 470-C02]: in the assay with cMet-Fc fusion protein [3], the fold over background amounted to 36.9 fold.
